Our source for the peptide exchange yield values is patent US20160250307A1.

This assay deals with HLA-A*02 (human). Briefly: UV-ligand exchange, anti-b2m ELISA; grade: exchange yield >=50%. (An ELISA detects its analyte on a solid surface through an enzyme-linked reagent.)

For the molecule SLTSEIHFL […], the peptide exchange yield lay in the range of 50 to 75%.
